Assay [1] addresses His6-PEX19-αd4A (F125A, L129A, L133A, L136A), non-farnesylated (human) (UniProt P40855). Description: cross-linking; UV crosslinking from Bpa at L264 of PEX26; purified PEX19·PEX26^Bpa complex chased with SGTA instead of CaM.
Assay [2] has as its target His6-PEX19-WT (1–299 aa), non-farnesylated (human) (UniProt P40855). The assay is described as above.
Assay [3] addresses PEX19-WT proteins. Description: cross-linking; UV crosslinking from Bpa at L264 of PEX26; purified PEX19·PEX26^Bpa complex (400 nM PEX19) chased with 20 μM CaM at room temperature in 20 mM K-HEPES pH 7.5, 150 mM CH3COOK, 1 mM Ca acetate, 1 mM DTT, 10% glycerol; frozen aliquots irradiated; anti-Strep blot; dissociation (%) = PEX26xCaM/(PEX26xPEX19 + PEX26xCaM).
Assay [4] has as its target PEX19-αd4A proteins. Described as above.
For assay [5], the target named is His6-PEX19-αd4A (F125A, L129A, L133A, L136A), non-farnesylated (human) (UniProt P40855). The assay is described as above.
Assay [6] deals with His6-PEX19-WT (1–299 aa), non-farnesylated (human) (UniProt P40855). The description is as above.
Assay [7] addresses farnesylated PEX19-WT (PEX19-WT^F) (human) (UniProt P40855). The assay is described as above.
The target in assay [8] is 2×Strep-SUMO-PEX26 (237-305aa) (UniProt Q7Z412).
2×Strep-SUMO-PEX26 (237-305aa), sequence (Q7Z412 237-305): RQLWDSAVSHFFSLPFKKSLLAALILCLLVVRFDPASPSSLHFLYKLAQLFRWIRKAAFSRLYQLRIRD
For assay [9], the target named is PEX3 cytosolic domain (Homo sapiens) (UniProt P56589). The conditions noted are these: cited from earlier work.
PEX3 cytosolic domain (Homo sapiens), sequence (P56589 41-373): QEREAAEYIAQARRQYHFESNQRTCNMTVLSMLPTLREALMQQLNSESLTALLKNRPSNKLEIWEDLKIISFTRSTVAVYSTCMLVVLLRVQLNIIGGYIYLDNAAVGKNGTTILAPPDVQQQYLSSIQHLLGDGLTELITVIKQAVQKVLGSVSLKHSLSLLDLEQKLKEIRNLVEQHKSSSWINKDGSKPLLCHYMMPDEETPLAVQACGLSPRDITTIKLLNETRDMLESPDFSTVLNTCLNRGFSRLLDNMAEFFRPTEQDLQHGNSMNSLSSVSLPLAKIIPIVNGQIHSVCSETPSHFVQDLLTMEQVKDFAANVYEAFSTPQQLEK
Assay [10] shares this target. The conditions noted are these: cited from earlier work. The source holds these as a separate data set.

Several values for one entry are separate records, joined by “and”; a condition that tells them apart may be missing. Equal values may be shown once. Read-outs that look alike come from different tables or passages of the source.

PEX19, sequence (P40855 2-296): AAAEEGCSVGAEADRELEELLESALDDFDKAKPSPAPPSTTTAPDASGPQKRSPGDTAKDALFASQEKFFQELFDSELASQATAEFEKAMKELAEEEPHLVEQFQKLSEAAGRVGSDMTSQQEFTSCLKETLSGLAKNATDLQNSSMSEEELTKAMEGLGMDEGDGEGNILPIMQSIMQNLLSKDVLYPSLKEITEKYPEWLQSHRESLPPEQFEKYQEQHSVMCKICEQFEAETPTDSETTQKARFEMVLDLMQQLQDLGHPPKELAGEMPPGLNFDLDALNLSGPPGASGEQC
PEX19 αa peptide, sequence (P40855 14-33): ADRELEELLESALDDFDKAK
farnesylated PEX19-WT (PEX19-WT^F), sequence (P40855 whole entry): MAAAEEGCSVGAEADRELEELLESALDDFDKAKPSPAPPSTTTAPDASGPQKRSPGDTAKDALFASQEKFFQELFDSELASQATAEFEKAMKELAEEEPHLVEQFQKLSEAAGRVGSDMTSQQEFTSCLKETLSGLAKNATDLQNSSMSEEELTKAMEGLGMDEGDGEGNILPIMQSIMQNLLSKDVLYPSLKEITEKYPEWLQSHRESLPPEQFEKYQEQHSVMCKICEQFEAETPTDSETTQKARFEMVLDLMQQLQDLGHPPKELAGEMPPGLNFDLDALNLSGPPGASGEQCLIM
His6-PEX19-WT (1–299 aa), non-farnesylated, sequence (P40855 whole entry, the tested form may be a part): as the sequence (P40855 whole entry) above

Regarding “2×Strep-SUMO-PEX26^Bpa (L264^Bpa) (from UniProt Q7Z412 237-305) (domain or fragment)”, in assay [1], the PEX26 dissociation (%) within 10 min of SGTA chase was above 40% and the PEX26 dissociation (%) within 20 min of SGTA chase amounted to 50%. This substance yielded a PEX26 dissociation (%) within 80 min of SGTA chase in assay [2] below 4%. Besides, in assay [3], the PEX26 dissociation (%) within 4 h of CaM chase is 20% and 30%. In addition, the PEX26 dissociation (%) within 5 min of CaM chase in assay [4] is 60% and 80%. Besides, in [5], the PEX26 dissociation (%) within 10 min of CaM chase was found to be 70%. Moreover, in assay [6], the PEX26 dissociation (%) within 10 min of CaM chase was found to be 16%; the time to release ∼20% of PEX26 to CaM is 30 min and 40 min. Moreover, in assay [7], the time to release ∼20% of PEX26 to CaM worked out at 240 min.
Regarding “His6-PEX19-WT (1–299 aa), non-farnesylated (from UniProt P40855 1-299) (natural protein)”, the turbidity assay (OD360): concentration of PEX19 for half-maximal solubilization of 1.5 μM PEX26 (K soluble) in assay [8] turned out to be 1.71 µM.
What is called Kd is the constant that tells how readily two partners part at equilibrium. As for PEX19 (from UniProt P40855), in assay [9], the dissociation constant (Kd) was 3.4 nM.
Take PEX19 αa peptide (from UniProt P40855): the dissociation constant Kd in assay [10] is 40.8 nM.
“farnesylated PEX19-WT (PEX19-WT^F) (from UniProt P40855 1-299) (natural protein)” had a turbidity assay (OD360): concentration of PEX19 for half-maximal solubilization of 1.5 μM PEX26 (K soluble) in assay [8] of 0.72 µM.

The values above are taken from PMC10995880.
